The data set concerns the target oestrogen receptor (ER), recombinant human (human, UniProt P03372 1-595). Briefly: EMSA; 10 nM oestradiol; supershifted by anti-ER HC-20; 20 mM HEPES pH 7.9, 60 mM KCl, 5 mM MgCl2, 2 mM DTT, 10% glycerol, 100 ug (unit prefix not given) BSA, 380 fmol ER, 6 ng ERE, 20 ul; 20 C 20 min then 37 C 15 min; 4% native PAGE in 90 mM Tris-borate, 2.5 mM EDTA pH 8.3. The settings on record: protein: commercial; label: 32P end label (T4 PNK); (only one strand printed, described as complementary strands, 27 bp).

Sequence of oestrogen receptor (ER), recombinant human (P03372 whole entry): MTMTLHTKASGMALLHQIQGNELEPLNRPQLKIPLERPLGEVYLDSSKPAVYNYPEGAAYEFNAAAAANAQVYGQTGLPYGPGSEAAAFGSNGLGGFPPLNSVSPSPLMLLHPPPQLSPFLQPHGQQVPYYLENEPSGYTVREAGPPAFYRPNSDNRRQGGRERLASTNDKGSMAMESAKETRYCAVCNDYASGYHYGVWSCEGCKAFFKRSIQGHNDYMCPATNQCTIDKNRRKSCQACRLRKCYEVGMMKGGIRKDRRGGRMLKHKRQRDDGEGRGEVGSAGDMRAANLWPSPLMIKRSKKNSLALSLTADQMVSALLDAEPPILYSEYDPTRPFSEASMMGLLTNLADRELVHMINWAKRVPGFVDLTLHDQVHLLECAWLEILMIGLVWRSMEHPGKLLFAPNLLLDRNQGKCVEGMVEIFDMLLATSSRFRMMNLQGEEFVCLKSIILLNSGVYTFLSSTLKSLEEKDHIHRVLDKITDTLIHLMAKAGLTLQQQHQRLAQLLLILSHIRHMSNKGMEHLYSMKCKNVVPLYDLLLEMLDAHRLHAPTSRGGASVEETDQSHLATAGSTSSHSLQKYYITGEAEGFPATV

B1: consensus ERE 27 bp (dsDNA)
DNA 1: GATCCAGGTCACAGTGACCTGGGCCCG
DNA 2: CGGGCCCAGGTCACTGTGACCTGGATC
As for B1, the binding result is given as “binds”.

The record behind these values is paper PMC2362355, “The two phyto-oestrogens genistein and quercetin exert different effects on oestrogen receptor function”.
